# Results as given in publication PMC7820951.
# Substrate: CC(C)O
# Assay: purified protein
# Details: alcohol oxidation; cofactor F420
protein,measurement,value
ADF (F420-dependent alcohol dehydrogenase) (Methanoculleus thermophilus) (protein) MKTQIGYFASLEQYRPMDALEQAIRAEKVGFDSVWVDDHFHPWYHDNAQSAQAWAWMGAALQATKKVFISTCITCPIMRYNPAIVAQTFATLRQMYPGRVGVAVGAGEAMNEVPVTGEWPSVPVRQDMTVEAVKVMRMLWESDKPVTFKGDYFTLDKAFLYTKPDDEVPLYFSGMGPKGAKLAGMYGDHLMTVAAAPSTLKNVTIPKFEEGAREAGKDPSKMEHAMLIWYSVDPDYDKAVEALRFWAGCLVPSMFKYKVYDPKEVQLHANLVHCDTIKENYMCATDAEEMIKEIERFKEAGINHFCLGNSSPDVNFGIDIFKEVIPAVRD,Km,1300 µM
same,kcat,1.7 s⁻¹
